The text below walks through data of publication PMC9879097, “Borrelia burgdorferi DnaA and the Nucleoid-Associated Protein EbfC Coordinate Expression of the dnaX-ebfC Operon”.

For data set [1], the target named is T1, EbfC (Borrelia burgdorferi, UniProt O51418 1-99).
T1 sequence: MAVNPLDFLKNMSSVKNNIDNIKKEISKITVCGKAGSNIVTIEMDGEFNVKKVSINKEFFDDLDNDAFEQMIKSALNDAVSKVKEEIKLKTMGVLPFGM
Kind of data set: EMSA; 5-15 uM EbfC; two complexes; 50 mM Tris-HCl (pH not stated), 50 mM KCl, 1 mM EDTA, 1 mM PMSF, 1 mM DTT, 0.01% Tween 20, 10% glycerol; room temperature 15 min; GST-DnaA reactions with 1 mM MgCl2 and 1 mM ATP or ADP; 100 nM DNA or 20 nM RNA probe. The conditions noted are these: protein: recombinant; tags: N-terminal 6xHis (pET200); chain copies: 2; label: 5' Alexa Fluor 647 (probe). In general terms: A gel shift assay detects complexes by their altered migration in electrophoresis.

Data set [2] deals with T1, EbfC. The data set can be described thus: EMSA; poly(dI-dC) 2.5 ng/uL; 3.75-30 uM EbfC; 50 mM Tris-HCl (pH not stated), 50 mM KCl, 1 mM EDTA, 1 mM PMSF, 1 mM DTT, 0.01% Tween 20, 10% glycerol; room temperature 15 min; GST-DnaA reactions with 1 mM MgCl2 and 1 mM ATP or ADP; 100 nM DNA or 20 nM RNA probe. Conditions: protein: recombinant; tags: N-terminal 6xHis (pET200); chain copies: 2; label: 5' IRDye800 on strand 1; blunt.

Data set [3] addresses T1, EbfC. Kind of data set: competition; 50x excess vs N13; 50 mM Tris-HCl (pH not stated), 50 mM KCl, 1 mM EDTA, 1 mM PMSF, 1 mM DTT, 0.01% Tween 20, 10% glycerol; room temperature 15 min; GST-DnaA reactions with 1 mM MgCl2 and 1 mM ATP or ADP; 100 nM DNA or 20 nM RNA probe. Conditions: protein: recombinant; tags: N-terminal 6xHis (pET200); chain copies: 2.
The next data set deals with T2, GST-DnaA (Borrelia burgdorferi, UniProt P33768 1-486).
T2 sequence: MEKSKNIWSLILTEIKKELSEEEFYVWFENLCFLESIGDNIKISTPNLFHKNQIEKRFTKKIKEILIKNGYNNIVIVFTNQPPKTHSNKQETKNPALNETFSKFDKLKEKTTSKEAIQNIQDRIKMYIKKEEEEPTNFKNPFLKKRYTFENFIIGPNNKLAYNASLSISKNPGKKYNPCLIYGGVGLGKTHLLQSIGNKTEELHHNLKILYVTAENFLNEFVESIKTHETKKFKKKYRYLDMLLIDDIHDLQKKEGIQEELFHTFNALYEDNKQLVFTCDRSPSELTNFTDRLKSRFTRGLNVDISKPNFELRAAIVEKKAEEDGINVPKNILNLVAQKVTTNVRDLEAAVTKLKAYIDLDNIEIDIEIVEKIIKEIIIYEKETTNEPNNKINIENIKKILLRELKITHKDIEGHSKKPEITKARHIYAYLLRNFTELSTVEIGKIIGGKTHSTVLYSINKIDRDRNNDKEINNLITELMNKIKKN
Kind of data set: competition; ATP, Mg2+; 10x excess vs N1; 50 mM Tris-HCl (pH not stated), 50 mM KCl, 1 mM EDTA, 1 mM PMSF, 1 mM DTT, 0.01% Tween 20, 10% glycerol; room temperature 15 min; GST-DnaA reactions with 1 mM MgCl2 and 1 mM ATP or ADP; 100 nM DNA or 20 nM RNA probe. The conditions noted are these: protein: recombinant; tags: N-terminal GST; blunt.

Data set [4] deals with T1, EbfC. Kind of data set: competition; 50x excess vs N13; only smaller complex eliminated; 50 mM Tris-HCl (pH not stated), 50 mM KCl, 1 mM EDTA, 1 mM PMSF, 1 mM DTT, 0.01% Tween 20, 10% glycerol; room temperature 15 min; GST-DnaA reactions with 1 mM MgCl2 and 1 mM ATP or ADP; 100 nM DNA or 20 nM RNA probe. The conditions noted are these: protein: recombinant; tags: N-terminal 6xHis (pET200); chain copies: 2.

In the case of GGAUUUGUCUUUUUGUAACUUUCAAUUUUA (ssRNA) [EbfC RNA, dnaX-ebfC 5' UTR 30-mer], the binding result with EbfC [1] is given as “binds”.

B1: probe 2, consensus EbfC motif (dsDNA)
DNA 1: GGATTTGTCTTTTTGTAACTTTCAATTTTA
DNA 2: TAAAATTGAAAGTTACAAAAAGACAAATCC
Regarding B1, in the data set with EbfC [2], the binding result is listed as “binds”. In the case of AGGCAAAAGGAUUUGCCAAAGUCAGAAAUU (ssRNA) [flaB RNA competitor], in the data set with EbfC [3], the binding result is on record as “no binding”.

B2: Competitor 6 (C6) (dsDNA)
DNA 1: TTTCAATTTTATTATATTTTTTATGTTTCATAAAATTCTTTTAAA
DNA 2: TTTAAAAGAATTTTATGAAACATAAAAAATATAATAAAATTGAAA
On to B2, for which, in the data set with GST-DnaA, the binding result is recorded as “no binding”.

B3: Competitor 3 (C3) (dsDNA)
DNA 1: TTCATAAAATTCTTTTAAAGTAATAGCTCTGAGATATAAATATGT
DNA 2: ACATATTTATATCTCAGAGCTATTACTTTAAAAGAATTTTATGAA
As to B3, the binding result in the data set with GST-DnaA was “binds”. As to GGAUUUGUCUUUUUGUAACUUUCAAUUUUA (ssRNA) [unlabeled dnaX-ebfC RNA competitor], the binding result with EbfC [4] was “binds”.

B4: Competitor 5 (C5) (dsDNA)
DNA 1: AAATGCAATGTTTTGCTTTATGTTAAGATATGGATTTGTCTTTTT
DNA 2: AAAAAGACAAATCCATATCTTAACATAAAGCAAAACATTGCATTT
In the case of B4, in the data set with GST-DnaA, the binding result was “no binding”.

B5: Competitor 2 (C2) (dsDNA)
DNA 1: GGATTTGTCTTTTTGTAACTTTCAATTTTATTATATTTTTTATGT
DNA 2: ACATAAAAAATATAATAAAATTGAAAGTTACAAAAAGACAAATCC
For the molecule B5, the binding result with GST-DnaA was “binds”.
